Data: paper PMC7293038

Legend:
Experiment in all cases: BLI; biotinylated Avi-tag-ZIgE-SpyCatcher loaded on streptavidin Octet tips (2.5 ug/ml, 60 s); IgE as analyte in PBST with 30 mg/ml skimmed milk; 300 s association, 400 s dissociation; 1:1 binding model assuming only partial dissociation; mean of three IgE concentrations
[1] = target: Avi-tag-ZIgE^consensus-SpyCatcher
[2] = target: Avi-tag-ZIgE^33-SpyCatcher
[3] = target: Avi-tag-ZIgE^wild-type-SpyCatcher
[4] = target: Avi-tag-ZIgE^44-SpyCatcher

Kd [1]: 0.61 µM | Kd [2]: 2.1 µM | Kd [3]: 7.3 µM | Kd [4]: 4.8 µM
Substance: IgE (native human monoclonal, Abcam ab65866) (antibody)
